Assay results as given in patent US20260265360A1, “USE OF ANTI-FAM19A5 ANTAGONISTS FOR TREATING HEARING DISORDERS” (NEURACLE SCIENCE CO., LTD., priority 2023, published 2026).

Legend:
[1] = tested on: noise-induced hearing loss mouse model; assay: Noise-induced hearing loss mouse model, first antibody dose 2 hours post noise exposure; format: in vivo; conditions: first dose 2 hours post noise
Method: FIGS. 13A, 13B, 13C, 13D, and 13E show the therapeutic effect of FAM19A5 antagonists (administered 2 hours after noise induction) on auditory brainstem response (ABR) threshold in a noise-induced hearing loss mouse model. The overall design was similar as that provided in FIG. 6A, except that the antibodies were administered to the animals at 2 hours post noise induction. FIG. 13A provides the results before noise exposure. FIG. 13B provides the results at one day post noise exposure. FIG. 13C provides the results at two weeks post noise exposure. FIG. 13D provides the results at four weeks post noise exposure. FIG. 13E provides the results at eight weeks post noise exposure. ABR threshold was measured at a frequency ranging from 4 kHz to 64 kHz.
FIGS. 14A and 14B show the effect of FAM19A5 antagonists on ABR I/O function in a noise-induced hearing loss mouse model. FIG. 14A provides comparisons of wave I amplitude (1st graph) and wave IV amplitude (2nd graph) in animals treated with the anti-FAM19A5 antibody (square), before noise group (triangle) or control IgG antibody (circle) 2 weeks after noise exposure. FIG. 14B provides comparisons of wave I amplitude (1st graph) and wave IV amplitude (2nd graph) in animals treated with the anti-FAM19A5 antibody (square), before noise group (triangle) or control IgG antibody (circle) 4 weeks after noise exposure. Tone bursts were measured across 0 and 90 dB.
Next, to assess whether the timing of the anti-FAM19A5 antibody administration has an effect, the above-described noise-induced hearing loss mouse model was used again. Again, to induce hearing loss, the animals were exposed to a temporary threshold shift (TTS) of 105 decibels for 30 minutes. An anti-FAM19A5 antibody (1-30 antibody) or a control human IgG antibody was intravenously administered to the animals once weekly for 5 total administration (30 mg/kg per dose). […] Hearing loss was assessed (e.g., by measuring ABR threshold, DPOAE threshold, and/or DPOAE amplitude) in the animals prior to the noise exposure and then again at one day, two weeks, and four weeks post noise exposure.

human FAM19A5 = human FAM19A5 (Homo sapiens, UniProt Q7Z5A7); assay: HDX-MS epitope mapping; format: binding; conditions: HDX-MS deuterium uptake heat map; residues of SEQ ID NO: 304
human FAM19A5, sequence (Q7Z5A7 26-125 isoform Q7Z5A7-2 limits assumed): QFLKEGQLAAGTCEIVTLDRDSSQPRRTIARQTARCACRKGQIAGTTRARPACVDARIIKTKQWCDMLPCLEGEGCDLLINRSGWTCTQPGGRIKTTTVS
Method: Hydrogen/deuterium exchange mass spectrometry (HDX-MS) was utilized as described below to probe the binding epitope of human FAM19A5 for the clone 2-13 anti-FAM19A5 antibody.
Prior to epitope mapping experiments, non-deuteriated experiments were carried out to generate a list of common peptides for FAM19A5 protein. Off-line and on-line pepsin digestion were used to digest the FAM19A5 protein. Houde, D., et al., Methods Mol Biol 988:269-89 (2013). With on-line digestion, pepsin immobilized column was used (~20° C.) and the efficiency of the reaction was regulated by adjusting the flow rate. With the off-line method, FAM19A5 protein was digested manually with pepsin at 4° C. for 5 minutes, and then, the mixture was loaded to liquid chromatography column for analysis. To identify the condition for maximal protein coverage, one or more of the following parameters were adjusted: potassium phosphate, sodium phosphate, quench holding time, reducing reagent (TCEP), urea concentration, and pepsin concentration. The Waters PLGS software was used to analyze the raw mass spectrometry (MS) data generated to determine whether maximal protein coverage was obtained. To confirm the reproducibility of the experiments, each of the experimental conditions were repeated at least twice, and peptides that were generated were confirmed. […]

[2] = tested on: human FAM19A5 protein epitope fragments F1-F6; assay: Epitope mapping: binding to BSA-conjugated FAM19A5 epitope fragments F1-F6 (Western blot / ELISA); conditions: ELISA
Method: Overlapping peptide fragments (F1-F6 epitope fragments; SEQ ID NOs: 178-183) of the human FAM19A5 protein were synthesized and conjugated to BSA (SEQ ID NOs: 322-327). Binding of the different anti-FAM19A5 antibodies to the BSA-conjugated peptide fragments F1-F6 was determined by Western blot analysis or ELISA assay. For the Western blot analysis, BSA-conjugated FAM19A5 fragments F1-F6 were separated by SDS polyacrylamide gel electrophoresis and transferred to a nitrocellulose membrane by the standard procedure. The membrane was incubated with the anti-FAM19A5 antibody (e.g., 1-65, […], 1-65-scFv-rabbit Fc-SSS), and the antigen-antibody complexes were detected with the appropriate secondary antibody conjugated with horse-radish peroxidase (anti-rabbit IgG (Fc specific)-HRP, 1:4000 dilution). For the ELISA assay, the following protocol was used. FAM19A5 fragment F1-F6 (diluted to 1 μg/mL in 50 mM carbonate buffer (Biosesang) or to 20 μg/mL for high concentration analysis) were used to coat the wells of 96-well immuno plates (Thermo Scientific) (100 μL/well) overnight at 4° C. and then subsequently washed twice in 1×PBS. The plates were then blocked with the blocking buffer (100 μL/well) for 1 hour at room temperature. During the 1-hour incubation, the relavant anti-FAM19A5 antibodies were diluted to 1 μg/mL (or 20 μg/mL for high concentration analysis) in the diluent buffer. Once the plates were washed (2× using 1×PBS), the diluted anti-FAM19A5 antibodies were added to the appropriate wells, and the plates were incubated at room temperature for 1 hour. The plates were subsequently washed for a total of five times using the washing buffer. Next, the ODP substrate (prepared by dissolving one ODP tablet (O-phenylenediamine Dihydrochloride, Thermo) into 9 mL of sterilized deionized water and 1 mL of 10× stable Peroxide Stable buffer (Theromo)) was added to each of the wells, and the color change reaction was allowed to occur for 10 minutes. This reaction was stopped by adding 100 μL of 2N H2SO4 (Daejung) to the wells. The absorption value of each of the wells was detected at 492 nm using a 96-well microplate reader (Molecular Device).

[3] = 2 and 4 weeks after noise, particularly at higher tone-burst levels

Row | Molecule | ABR threshold vs control antibody ([1]; 30 mg/kg i.v. weekly x5) | Wave I amplitude vs control antibody [1, 3] | Wave IV amplitude vs control antibody [1, 3] | amino acid residues identified as important binding residues (human FAM19A5) | binding to any of the epitope fragments F1-F6 [2]
1 | 1-30: anti-FAM19A5 antibody, de-immunized variant of 3-2; VH SEQ ID NO: 235, VL SEQ ID NO: 240 (antibody, V domains shown, Low-PI VH, 1-30 VH, 1-17 VH, 1-32 VH, 4-11 VH, 6-10 VH; 1-30 VL) VH: AVTLDESGGGLQTPGGALRLSCKASGFDFESFNMFWVRQAPGKGLEYVSQISSSEEDENYAPAVKGRATISRDNGQSTLYLQMNSLRAEDTGTYYCAKSSYDCPYGHCSSGVDSAGEIDAWGHGTEVIVSS VL: ALTQPSSVSANPGETVKITCSGGGSEEEQYYYGWYQQKPGSAPVTLIYQDEERPSDIPSRFSGSTSGSTATLTITGVQAGDEADYYCGSWDSEDEDHFGAGTTLTVL | did not appear to be any significant differences | noticeable differences were observed | noticeable differences were observed |  | 
2 | 2-13: anti-FAM19A5 antibody; VH SEQ ID NO: 35, VL SEQ ID NO: 39 (antibody, V domains shown, 2-13 VH; 2-13 VL) VH: AVTLDESGGGLQTPGGALSLVCKASGFTFSSHGMFWVRQTPGKGLEYVAEITNDGSGTNYGSAVKGRATISRDNGQSTVRLQLNNLRAEDTGTYFCARSTYECPGGFSCWGDTGQIDAWGHGTEVIVSS VL: ALTQPSSVSANPGETVKITCSGGSYSYGWFQQKSPGSALVTVIYWDDERPSDIPSRFSGALSGSTNTLTITGVQADDEAVYFCGTEDISGTAGVFGAGTTLTVL |  |  |  | 38-50 ([…]; i.e., SEQ ID NO: 199) and 51-64 ([…]; i.e., SEQ ID NO: 200) | did not appear to bind
